# Experimental data from the RNAGym collection of RNA variant scans (doi:10.1073/pnas.2313332121).
# B1: TPR t1 (parent)
# chain: GACCAAUCUGCCCUCAGAGCUCGAGAACAUCUUCGGAUGCAGAGGAGGCAGGCUUCGGUGGCGCGAUAGCGCCAACGUCCUCAACCUCCAAUGCAUCCCACCACAUGAUGAUGCCUGAAGAGCCUUGGUUUUUUG
# Variants of: B1
# Assay: polymerase ribozyme fitness, log enrichment relative to wild type (log ratio); higher = more active; in vitro selection for triplet polymerase activity
# Procedure, shortened: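 Mutant libraries for each subunit of a heterodimeric triplet polymerase ribozyme were made by PCR and then transcribed. Each library underwent one round of in vitro selection in triplicate: annealing with a biotinylated primer, the partner subunit and triplets, frozen incubation at −7 °C, gel excision of extended constructs, streptavidin-bead capture and RT-PCR. Input and output libraries were Illumina-sequenced, and only genotypes with ≥10 input reads and ≥1 read per output were kept. Fitness is the logarithm, base 2, of genotype enrichment over wild-type enrichment, computed from inverse-variance-weighted replicate averages.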
row,Variant,polymerase ribozyme fitness (log ratio)
1,GACCAAUCUGCCUUCAGAGCUCGAGAACAUCUUCGGAUGCAGAGGAGGCAGGUUUCGGUGGCGCGAUAGCGCCAACGUCCUCAACCUCCAACGCAUCCCACCACAUGAUGAUGCCUGAAGAGGCUUGGUUAUUUG,-0.0541
2,GACCAAUCUGCCUUCAGAGCUCGAGAACAUCUUCGGAUGCAGAGGAGGCAGGCUUCGGUGGUGCGAUAGCGCCAACGUCCUCCACCUCUAAUGCAUCCCACCACAUGAUGAUGCCUGAAGAGCCUUGGUUUUUUG,-0.547
3,GACCAAUCUGCCUUCAGAGCUCGAGAACAUCUUCGGAUGCAGAGGAGGCAGGCUUUGGUGGCGCGAUAGCGCCAACGUCCUCAACCUCCAAUGCAUCCCACCACAUGAUGAUGCCUGAAGAGCGUUGGUUCUUUG,2.69
4,GACCAAUCUGCCUUCAGAGCUCGAGAACAUCUUUGGAUGCAGAGGAGGCAGGCUUCGGUGGAGCGAUAGCGCCAACGUCCUCAACCUCCAAUGCAUCCCACCACAUGAUGAUGCCUGAACAGCUUUGGUUUUUUG,-6.16
5,GACCAAUCUGCCUUCAGAGCUCGAGAACAUCUUCGGAUGCAGAGGAGGCAGGCUUAGGUGGCGCGAUAGCGCCAACGUCCUCAACCUCCAAUGCAUCCCACCACAUGAUGAUGUCUGAAGAGCCUUGGUUUUUUG,-1.73
6,GACCAAUCUGCCUUCAGAGCUCGAGAACAUCUUCGGAUGCAGAGGAGGCAGGCUUUGGUGGCGCGAUAGCGCCAACGUCCUCAACCUCCAAUGCAUCCCACCACAGGAUGAUGGCUGAAGAGCCUUGGUUUUUUG,-4.09
7,GACCAAUCUGCCUUCAGAGCUCGAGAACAUCUUCGGAUGUAGAGGAGGCAGGCUUCGGUGGCGCGAUAGCGCCAACGUCCUCAACCUCCAAUGCAUCCCACCACAUGAUGAUGCCUGAAGAGCGUUGGUUUUUUG,1.61
8,GACCAAUCUGCCUUCAGAGCUCGAGAACAUCUUCGGAUGCAGAGGAGGCAGGCUUCGGUGGCGAGAUAGCGCCAACGUCCUCAACCUCCAAUGCAUCCCACCACAUGAUGAUGCCUGAAGAGCCUUGGUUUUUUG,-6
9,GACCAAUCUGCCUUCAGAGCUCGAGAACAUCUUCGGAUGCAGAGGAGGCAGGCUUAGGUGGUGCGAUAGCGCCAACGUCCUCAACCUCCAAUGCAUACCACUACAUGAUGAUGCCUGAAGAGCCUUGGUUUUUUG,-5.15
10,GACCAAUCUGCCUUCAGAGCUCGAGAACAUCUUCGGAUGCAGAGGAGGCAGGCUUUGGUGGCGCGAUAGCGCCAACGUCCUCAACCUCCAAUGCAUGCCACCACAUGAUGAUGCCUGAAGAGCCUUAGUUUUUUG,-4.74
11,GACCAAUCUGCCUUCAGAGCUCGAGAACAUCUUCGGAUGCAGAGGAGGAAGGCUUCGGUGGCGCGAUAGCCCCAACGUCCUCAACCUCCAAUGCAUCCCACCACAUGAUGAUGCCUGAAGAGCCUUCGUUUUUUG,-1.9
12,GACCAAUCUGCCUUCAGAGCUCGAGAACAUAUUCGGAUGCAGAGGAGGCAGGCUUCGGUGGCGCGAUAGCGCCAACGUCCUCAACCUCCAAUGCAUCCCACCACAUGAUGAUGCCUGAAGAGCCUUGGUUUUUUG,-5.19
13,GACCAAUCUGCCUUCAGAGCUCGAGAACAUCUUCGGAUGCAGAGGAGGCAGGUUUCGGUGGCGCGAUAGCGCCAACGUCCUCAACCUCCAAUGCAUCCCACCACAUGAUGAUGACUGAACAGCCUUGGUUUUUUG,-1.1
14,GACCAAUCUGCCUUCAGAGCUCGAGAACAUCUUCGGAUGCAGAGGAGGCAGGCUUUGGUGGCGCGAUAGCGCCAACGUCCUCAACCUCCAAUGCAUCCCACCACAUGAUGAUGCCUGAAGCGCCUUGGUGUUUUG,1.59
15,GACCAAUCUGCCUUCAGAGCUCGAGAACAUCUUCGGAUGCAGAGGAGGAAGGCUUCGGUGGCGCGAUAGCACCAACGUCCUCAACCUCCAAUGCAUCCCACCACAUGAUGAUGCCUGAAGAGCCUUGGUUUUUUG,-0.504
16,GACCAAUCUGCCUUCAGAGCUCGAGAACAUCUUCGGAUGCAGAGGAGGCAGGCUUUGGUGGCGCGAUAGCGCCAACGUCCGCAACCUCCGAUGCAUCCCACCACAUGAUGAUGCCUGAAGAGCCUUGGUUUUUUG,-0.257
17,GACCAAUCUGCCUUCAGAGCUCGAGAACAUCUUCGGAUGCAGAGGAGGCAGGCUUCGGUGGAGCGAUAGCGCCAACGUCCUCAACCUCCAAUGCAUCCCACCACAUGAUGAUGCCUGUAGAACCUUGGUUUUUUG,-2.35
18,GACCAAUCUGCCUUCAGAGCUCGAGAACAUCUUCGGAUGCAGAGGAGGAAGGCUUCGGUGGCGCGAUAGCGCCAACGUCCUCAACCUCCAAUGCAUCCCACCACAUGAUGAUGCCUGAAGAGCCUUGGUUUUUUG,-0.597
19,GACCAAUCUGCCUUCAGAGCUCGAGAACAUCUUCGGAUGUAGAGGAGGCAGGCUUCGGUGGCGCGAUAUCGCCAACGUCCUCAACCUGCAAUGCAUCCCACCACAUGAUGAUGCCUGAAGAGCCUUGGUUUUUUG,-2.27
20,GACCAAUCUGCCUUCAGAGCUCGAGAACAUCUUCGGAUGCAGAGGAGGCAGGCUUUGGUGGCGCGAUAGCGCCAACGUCCUCAACCUCCAAGCCAUCCCACCACAUGAUGAUGCAUGAAAAGCCUUGGUUUUUUG,-0.609
21,GACCAAUCUGCCUUCAGAGCUCGAGAACAUUUUCGGAUGCAGAGGGGGCAGGCUUCGGUGGCGCGAUAGCGUCAACGUCCUCAACCUCCAAUGCAUCCCACCACAUGAUGAUGCCUGAAGAGCCUUGGUUUUUUG,-4.32

row,Variant,polymerase ribozyme fitness (log ratio)
1,GACCAAUCUGCCUUCAGAGCUCGAGAACAUCUUCGGAUGCAGAGGAGGCAGGCUUAGGUGGCGCGAUAGCGCCAACGUCCUCAACAUCCAAUGCAUCCCACCACAUGAUGAUGCCUGAAGAGCCUUGGUUUUUUG,-0.732
2,GACCAAUCUGCCUUCAGAGCUCGAGAACAUCUUAGGAUGCAGAGGAGGCAGGCUUCGGUGGCGUGAUAGCGCCAACGUCCUCACCCUCCAAUGCAUCCCACCACAUGAUGAUUCCUGAAGAGCCUUGGUUUUUUG,-4.89
3,GACCAAUCUGCCUUCAGAGCUCGAGAACAUCUUCGGAUGCAGAGGAGGCAGGGUUCGGUGGCGCGAUAGCGCCAACGUCCUCAACCUCCAAUGCAUCCCACCACAUGAUGAUGCCUGAAGAGCCUUGGUUUUUUG,-0.309
4,GACCAAUCUGCCUUCAGAGCUCGAGAACAUCUUCGGAUGCAGAGGAGGCAGGUUUCGGUGGCGCGAUAGCGCCAACGUCCUCAACCUCCAAUGCAUCCCACCACAUGAUGAUGCCUGAAGAGCCUUGGUUUUUUG,0.405
5,GACCAAUCUGCCUUCAGAGCUCGAGAAGAUCUUCGGAUGCAGAGGAGGUAGGCUUCGGUGGCGCGAUAUCGCCAACGUCCUCAACCUCCAAUGCAUCCCACCACAUGAUGAUGCCUGAAGAGCCUUGGUUUUUUG,-1.49
6,GACCAAUCUGCCUUCAGAGCUCGAGAACAUCUUCGGAUGCAGAGGAGGUAGGCUUCGGUGGCGCGAUAGCGCCAACGUACUCAACCUCCAAUGCAUGCCACCACAUGAAGAUGCCUGAAGAGCCUUGGUUUUUUG,-7.98
7,GACCAAUCUGCCUUCAGAGCUCGAGAACAUCUUCGGAUGCAGAGGAGGCAGGCUUCGGUGGCGCGAUAGAGCUAACGUCCUCAACCUCCAAUGCAUCCCACCACAUGAUGAUGCCUGAAGAGCCUUGGUUUUUUG,-1.58
8,GACCAAUCUGCCUUCAGAGCUCGAGAACAUCUUUGGAUGCAGAGGAGGCAGCCUUCGGUGGCGCGAUAGCGCCAACGUCCUCAACCUCCAAUGCAUCCCACCACAUGAUGAUGCCUGAAGAGCCUUGGUUUUUUG,-4.17
9,GACCAAUCUGCCUUCAGAGCUCGAGAACAUCUUUGGAUGCAGAGGAGGCAGGCUUCGGUGGCGCGAUAGCGCCAACGUCCUCAACCUUCAAUGCAUCCCACCACAUGAUGAUGCCUGAAGAGCCUUGGUUUUUUG,-4.18
10,GACCAAUCUGCCUUCAGAGCUCGAGAACAUCUUCGGAUGCAGAGGAGGCAGGCUUCGGUGGAGCGAUAGCGCCAACGCCCUCAACCUCCAAUGCAUCCCACCACAUGAUGAUGCCUGUAGAACCUUGGUUUUUUG,-2.29
11,GACCAAUCUGCCUUCAGAGCUCGAGAACAUCUUCGGAUGCAGAGGAGGCAGGCUUCGGUGGCGGGAUAGCGCCAACGUCCUCAACCGCCAAUGCAUCCCACCACAUGAUGAUGCCUGAAAAGGCUUGGUUUUUUG,-5.41
12,GACCAAUCUGCCUUCAGAGCUCGAGAACAUCUUAGGAUGCAGAGGAGGCAGGCUUCGGUGGCGCGAUAGCGCCAACGGCCUCAACCUCCAAUGCAUCCCACCACAUGAUGAUGCCUGAAGAGCCUUGGUUUUUUG,-3.35
13,GACCAAUCUGCCUUCAGAGCUCGAGAACAUCUUCGGAUGCAGAGGAGGCAGGCUUAGGUGGCGCGAUAGCGCCAACGUCCUCAACCUCCAAUGCAUCCCACCACAUGAUGAUGCCUGAAGAGCCUUGGUUUUUUG,-0.36
14,GACCAAUCUGCCUUCAGAGCUCGAGAACAUCUUCGGAUGCAGAGGAGGCAGGCUUGGGUGGCGCGAUAGCGACAACGUCCUCAACCUCCAAUGCAUCCCACCACUUGAUGAUGCCUGAAGAGCCUUGGUUUUUUG,-2.1
15,GACCAAUCUGCCUUCAGAGCUCGAGAAUAUCUUCGGAUGUAGAGGAGGCAGGCUUCGGUGGCGCGAUAGCGCCUACGUCCUCAACCUCCAAUGCAUCCCACCACAUGAUGAUGCCUGAAGAGCAUUGGUUUUUUG,-1.32
16,GACCAAUCUGCCUUCAGAGCUCGAGAACAUCUUCGGAUGCAGAGGAGGCAGGCUUCGGUGGCGCGAUAGGGCCAACGUCCUCAACCUCCAAUGCAUCCCACCACAUGAUGAUGCCUGAAGAACCUUGGUUUUUUG,-2.19
17,GACCAAUCUGCCUUCAGAGCUCGAGAACAUCUUCGGAUGCAGAGGAGGCAGGCUUCGGUGGGGCGAUAGCGCCAACGUCCUCAACCUCCAAUGCAUCCCACCACAUGAUGAUGCCUGAAGAGCCUUGGUUUUUUG,-0.959
18,GACCAAUCUGCCUUCAGAGCUCGAGAACAUCUUCGGAUGCAGAGGAGGCAGGCUUCGGUGGAGCGAUAGCGCCAACGUCCUCAACCUCCAAUGCAUCCCACCACAUGAUGAUGCCUGAAGAGCCUUGGUUUUUUG,-0.888
19,GACCAAUCUGCCUUCAGAGCUCGAGAACAUCUUUGGAUGCAGAGGAGGCAGCCUUCGGUGGCGCGAUAGAGCCAACGUCCUCAACCUCCAAUGCAUCCCACCACAUGAUGAUGCCUGAAGAGCCUUGGUUUUUUG,-5.48
20,GACCAAUCUGCCUUCAGAGCUCGAGAACAUCUUCGGAUGCAGAGGAGGCAGGCUUUGGUGGCGCGAUAGCGGCAACGUCUUUAACUUCCAAUGCAUCCCACCACAUGAUGACGCCUGAAGAGCCUUGGUUUUUUG,-3.52
21,GACCAAUCUGCCUUCAGAGCUCGAGAACAUCUUCGGAUGCAGAGGAGGCAGGCUUUGGUGGCGCGAGAGCUCCAACGUCCUCAACCUCCAAUGCAUCCCACCACAGGAUGAUGGCUGAAGAGCCUUGGUUUUUUG,-7.12
